IC50 HCT-116, FLIPR Ca2+ mobilization and IC50 KNRK, FLIPR Ca2+ mobilization data for 1 substance are collected here from US20070237759A1.

The target in experiment [1] is human PAR-2 (proteinase activated receptor-2) (human) (UniProt P55085). The experiment is described as follows: cell-based or functional assay.
Experiment [2] has as its target PAR-2 expressed on cells, species not stated (Homo sapiens (Human)) (UniProt P55085). The experiment is described as follows: cell-based or functional assay.

Consider SAM11 monoclonal antibody to PAR-2, for which the IC50 HCT-116, FLIPR Ca2+ mobilization in experiment [1] is more than 2000 nM. This substance also registered an IC50 KNRK, FLIPR Ca2+ mobilization in experiment [2] of more than 2000 nM.
